# Data taken from PMC2697666 (Journal of molecular biology, 2009).
# Target: human factor Xa (human)
# Sequence (P00742 41-488): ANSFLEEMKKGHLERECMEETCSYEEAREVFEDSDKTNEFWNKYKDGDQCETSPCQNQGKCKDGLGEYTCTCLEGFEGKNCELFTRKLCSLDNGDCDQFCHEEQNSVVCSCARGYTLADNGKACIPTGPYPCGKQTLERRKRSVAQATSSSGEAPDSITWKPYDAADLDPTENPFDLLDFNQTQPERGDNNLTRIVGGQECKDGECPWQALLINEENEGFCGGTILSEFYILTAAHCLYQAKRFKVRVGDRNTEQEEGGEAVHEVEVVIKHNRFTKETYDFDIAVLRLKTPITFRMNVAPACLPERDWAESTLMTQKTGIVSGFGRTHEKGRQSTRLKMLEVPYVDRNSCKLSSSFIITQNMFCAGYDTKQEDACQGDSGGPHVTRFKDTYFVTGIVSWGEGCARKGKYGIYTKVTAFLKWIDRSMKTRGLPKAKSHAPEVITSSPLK
row,Substance,"second-order rate constant of factor Xa inhibition (kapp), with pentasaccharide [M⁻¹ s⁻¹]"
1,S137A/S380C antithrombin (from UniProt P01008 33-464) (natural protein),194000
2,S137A/V375C antithrombin (from UniProt P01008 33-464) (natural protein),664000
3,S137A/V375C/S380C antithrombin (from UniProt P01008 33-464) (natural protein),331
4,recombinant beta-glycoform S137A antithrombin (from UniProt P01008 33-464) (natural protein),756000
